What was measured:
[1] = biological target: YFP-tagged Kv7.2 WT channel (human) (UniProt O43526); assay: FRET or BRET; living HEK293T cells; mCFP-CaM (donor) and YFP (mCitrine)-tagged Kv7.2, ABCD or AB (acceptor), transfection ratio 1:5; spectral unmixing of confocal images; room temperature, buffer with 2 mM CaCl2, pH 7.4
[2] = biological target: mTFP1-AB-mcpVenus folding biosensor, W344R (human)
[3] = biological target: mTFP1-AB-mcpVenus folding biosensor, WT (human)
mTFP1-AB-mcpVenus folding biosensor, WT (human), sequence (O43526 whole entry): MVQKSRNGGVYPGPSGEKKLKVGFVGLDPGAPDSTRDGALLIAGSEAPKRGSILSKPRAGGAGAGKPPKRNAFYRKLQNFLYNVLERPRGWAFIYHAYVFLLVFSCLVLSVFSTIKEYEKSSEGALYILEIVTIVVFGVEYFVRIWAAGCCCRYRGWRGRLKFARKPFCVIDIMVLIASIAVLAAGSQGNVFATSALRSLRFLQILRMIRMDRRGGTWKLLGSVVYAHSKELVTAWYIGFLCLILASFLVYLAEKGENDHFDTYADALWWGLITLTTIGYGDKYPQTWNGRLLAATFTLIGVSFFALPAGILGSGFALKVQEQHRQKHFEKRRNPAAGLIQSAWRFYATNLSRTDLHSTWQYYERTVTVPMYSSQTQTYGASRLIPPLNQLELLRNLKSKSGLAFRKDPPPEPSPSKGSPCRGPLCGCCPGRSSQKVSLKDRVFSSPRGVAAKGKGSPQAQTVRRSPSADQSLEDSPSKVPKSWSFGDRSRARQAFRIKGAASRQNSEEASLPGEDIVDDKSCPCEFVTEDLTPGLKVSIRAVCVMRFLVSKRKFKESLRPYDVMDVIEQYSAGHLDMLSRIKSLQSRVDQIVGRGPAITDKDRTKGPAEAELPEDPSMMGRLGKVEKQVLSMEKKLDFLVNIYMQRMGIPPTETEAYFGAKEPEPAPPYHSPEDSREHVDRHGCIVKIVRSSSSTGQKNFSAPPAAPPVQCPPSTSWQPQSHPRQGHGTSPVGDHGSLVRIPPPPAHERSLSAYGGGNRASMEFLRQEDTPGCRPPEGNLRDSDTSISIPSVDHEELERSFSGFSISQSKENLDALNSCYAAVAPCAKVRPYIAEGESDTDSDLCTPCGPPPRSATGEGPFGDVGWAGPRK

YFP-tagged Kv7.2 WT channel (human), sequence (O43526 other isoform, or with tags, fused parts or gaps): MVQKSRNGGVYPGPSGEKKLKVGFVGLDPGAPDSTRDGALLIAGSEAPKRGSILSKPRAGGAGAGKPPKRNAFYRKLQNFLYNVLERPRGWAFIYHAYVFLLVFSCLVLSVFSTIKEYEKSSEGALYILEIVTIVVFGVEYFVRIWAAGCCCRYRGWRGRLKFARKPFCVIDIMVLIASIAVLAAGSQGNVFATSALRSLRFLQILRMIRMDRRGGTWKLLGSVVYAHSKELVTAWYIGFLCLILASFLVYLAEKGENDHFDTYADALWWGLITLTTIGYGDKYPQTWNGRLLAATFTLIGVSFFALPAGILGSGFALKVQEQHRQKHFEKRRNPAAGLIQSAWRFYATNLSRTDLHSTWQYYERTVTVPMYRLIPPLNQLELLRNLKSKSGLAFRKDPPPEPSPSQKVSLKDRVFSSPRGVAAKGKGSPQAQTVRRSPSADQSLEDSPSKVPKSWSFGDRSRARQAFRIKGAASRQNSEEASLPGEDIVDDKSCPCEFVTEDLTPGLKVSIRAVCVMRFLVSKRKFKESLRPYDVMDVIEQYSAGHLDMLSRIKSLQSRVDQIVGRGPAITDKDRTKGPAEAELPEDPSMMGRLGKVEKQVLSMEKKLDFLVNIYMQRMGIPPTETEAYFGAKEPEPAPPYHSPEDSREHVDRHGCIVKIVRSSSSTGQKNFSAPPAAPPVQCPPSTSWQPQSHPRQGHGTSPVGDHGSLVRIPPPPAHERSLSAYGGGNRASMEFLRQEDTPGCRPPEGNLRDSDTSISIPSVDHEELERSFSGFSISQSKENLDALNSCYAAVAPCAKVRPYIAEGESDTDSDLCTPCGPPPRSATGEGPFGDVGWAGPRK

Row | FRET efficiency [1] | FRET efficiency of the soluble fraction of the sensor co-expressed with CaM in E. coli, relative to the WT biosensor [2] | FRET efficiency (ratio of peak emission at 528 and 492 nm) of the folding sensor co-expressed with CaM [3] | Substance
1 | 0.18 |  |  | Calmodulin with an N-terminus mCFP-tag (from UniProt P0DP23 1-149) (natural protein)
2 |  | 33% | 0.4 | Calmodulin (from UniProt P0DP23 1-149) (natural protein)

From publication PMC8138981
